The labels stand for the following.
B1: unnamed (parent)
chain 1: DSGCVVSWKNKELKCGSGIFITDNVHTWTEQYKFQPESPSKLASAIQKAHEEGICGIRSVTRLENLMWKQITPELNHILSENEVKLTIMTGDIKGIMQAGKRSLRPQPTELKYSWKTWGKAKMLSTESHNQTFLIDGPETAECPNTNRAWNSLEVEDYGFGVFTTNIWLKLKEKQDVFCDSKLMSAAIKDNRAVHADMGYWIESALNDTWKIEKASFIEVKNCHWPKSHTLWSNGVLESEMIIPKNLAGPVSQHNYRPGYHTQITGPWHLGKLEMDFDFCDGTTVVVTEDCGNRGPSLRTTTASGKLITEWCCRSCTLPPLRYRGEDGCWYGMEIRPLKEKEENLVNSLVTA
chain 2: FHLTTRNGEPHMIVSRQEKGKSLLFKTEDGVNMCTLMAMDLGELCEDTITYKCPLLRQNEPEDIDCWCNSTSTWVTYGTCTTMGEHRRQKRSVALVPHVGMGLETRTETWMSSEGAWKHVQRIETWILRHPGFTMMAAILAYTIGTTHFQRALIFILLTAVTPSMT

The experiment covers variants of B1. The conditions noted are these: with partner chain of the complex shown;; read off a plot.
As for chain 1 W115A, the ratio to parent is 0.45 fold of WT.

In the case of chain 1 D180A, the ratio to parent was 1.5 fold of WT.

Take chain 1 S114A: the ratio to parent was 0.27 fold of WT.

For chain 1 T117A, the ratio to parent is 1.5 fold of WT.

For the variant chain 1 T301A, the ratio to parent is 1.7 fold of WT.

(Values after PMC4643051.)
